Source: US9334316B2, “Formulations comprising glucagon” (Oregon Health & Science University, priority 2014, dated 2016)
Like-named read-outs stand apart in the source and are kept apart here. Each block holds one compound with its values, some of them ahead of it.

Legend:
[1] = cited from earlier work
[2] = test system: cultured mammalian cells; details: fibrillated glucagon; cited from earlier work
[3] = Reversed phase LCMS of glucagon modifications after aging; type: physicochemical
Method: FIG. 3 is a set of four chromatograms from reversed phase LCMS showing the modifications present in glucagon incubated with ferulic acid under the indicated conditions and the recovery by adding varying amounts of L-methionine. The peak indicated as ‘A’ is identified as Met27 oxidation of glucagon; the peak indicated as ‘B’ is a minor breakdown product; the peaks indicated as ‘C’ are identified as glycine adducts.
FIG. 4 is a set of four spectra from reversed phase LCMS showing the modifications present in glucagon incubated under the indicated conditions. The peak indicated as ‘A’ is identified as Met27 oxidation of glucagon; the peak indicated as ‘B’ is a minor breakdown product; the peaks indicated as ‘C’ are identified as glycine adducts.
This oxidation occurs on amino acid residue 27, which is a methionine residue (Met27). In order to minimize oxidation, L-methionine was added to the formulation as an antioxidant at 0.1 and 1 mg/ml. […] This is presumably due to activation of a reactive site on the glucagon backbone that results in an addition reaction with glycine from the bulk solvent. In order to maximize the antioxidant properties while also minimizing the glycine adduct formation, a concentration of 0.1 mg/ml L-methionine was tested. Results are shown in the third panel from the top of FIG. 3. This particular formulation had some minor chain cleavage (peak B) that is variable from batch to batch. As a result, the formulation referred to herein as FAFG includes 0.1 mg/ml L-methionine.
This peak is inhibited at 0.1 mg/ml L-methionine added and nearly absent at 1 mg/ml L-methionine to minimize the oxidation even though glycine adducts are still in high amounts. As a result, the formulation referred to herein as THCFG includes 1 mg/ml L-methionine.
Ferulic acid and tetrahydrocurcumin modify glucagon less than curcumin.

[4] = 37° C., alkaline (around pH 10) compared to acidic (about pH 3); cited from earlier work
[5] = Curcumin half-life in glycine buffer at pH 9.0; type: physicochemical
Source text: Curcumin reduces Aβ fibril formation in vitro and when administered systemically to transgenic rodents predisposed to Alzheimer's disease (Hamaguchi T et al, Am J Pathol 175, 2557-2565 (2009) incorporated by reference herein). Curcumin has also been reported to inhibit the polymerization of α-synuclein, the compound responsible for Lewy body formation in diseases such as Parkinson's disease (Ono K and Yamada M, Curr Pharm Des 14, 3247-3266 (2008) and Ono K et al Curr Pharm Des 14, 3247-3266 (2008); both of which are incorporated by reference herein). This finding was confirmed in Pandey N et al, Acta Neuropathol 115, 479-489 (2008); which is incorporated by reference herein. However, curcumin stored in a glycine buffer at pH 9.0 degrades quickly with a half-life of about 7 hours.

[6] = 1st order degradation kinetics of ferulic acid / tetrahydrocurcumin in glucagon formulations; type: physicochemical; details: for half-life at 1 mM: buffer, read-out: degradation t1/2 (converted)

Compound: glucagon
cytotoxicity ([1]; aged at pH 10 in glycine): no cytotoxicity | cytotoxicity ([1]; aged for 5 days at pH 8.5, concentration 2.5 mg/ml): some cytotoxicity | cytotoxicity [2]: cytotoxic | Met27 oxidation of glucagon (peak A, LCMS) ([3]; aged 7 days at 37° C. with 1 mM ferulic acid): minor oxidation occurs | Met27 oxidation of glucagon (peak A, LCMS) ([3]; aged with 1 mM ferulic acid + 1 mg/ml L-methionine): minimization of oxidation | retention of unmodified glucagon ([3]; curcumin formulation + 1 mg/ml L-methionine): higher retention of unmodified glucagon | oxidation of glucagon ([3]; incubated with curcumin for 7 days at 37° C.): complete oxidation | Met27 oxidation of glucagon (peak A, LCMS) ([3]; incubated with tetrahydrocurcumin): much higher amount of Met27 oxidation | Met27 oxidation of glucagon (peak A, LCMS) ([3]; tetrahydrocurcumin + 0.1 mg/ml L-methionine): inhibited | Met27 oxidation of glucagon (peak A, LCMS) ([3]; tetrahydrocurcumin + 1 mg/ml L-methionine): nearly absent | amyloid fibril formation [4]: much less amyloid fibril formation

half-life ([5]; glucagon buffer with further addition of human serum albumin): 33.5 h | half-life ([5]; in a glucagon buffer): 12.5 h | half-life ([5]; stored in glycine buffer at pH 9.0): ~7 h
Compound: COc1cc(/C=C/C(=O)CC(=O)/C=C/c2ccc(O)c(OC)c2)ccc1O [curcumin]

1st order degradation k ([6]; 1 mM, pH 9): -0.000701 s⁻¹
Compound: COc1cc(/C=C/C(=O)O)ccc1O [ferulic acid]

Compound: COc1cc(CCC(=O)CC(=O)CCc2ccc(O)c(OC)c2)ccc1O [tetrahydrocurcumin]
1st order degradation k ([6]; 1 mM compound in 80 mM glycine pH 9.0): 0.00886 s⁻¹ | 1st order degradation k ([6]; 1 mM compound in 80 mM glycine pH 9.0 + 1 mg/ml glucagon): 0.000743 s⁻¹ | 1st order degradation k ([6]; 1 mM compound in 80 mM glycine pH 9.0 + 1 mg/ml glucagon + 1 mg/ml HSA): -0.0025 s⁻¹ | half-life at 1 mM ([6]; pH 9, 1 mM compound in 80 mM glycine pH 9.0 + 1 mg/ml glucagon): 933 h | half-life at 1 mM ([6]; pH 9, 1 mM compound in 80 mM glycine pH 9.0): ~78 h
